assay: soluble on expression in E. coli; label from the status in PepcDB or PDB records

Sequence	soluble on expression in E. coli
MGIIERIKEIEAEMARTQKNKATEYHLGQLKAKIAKLRTQLLEPPKGASGGGEGFEVTKYGHGRVALIGFPSVGKSTLLTMLTGTHSEAASYEFTTLTCIPGVIHYNDTKIQLLDLPGIIEGASEGKGRGRQVIAVAKSSDLVLMVLDASKSEGHRQILTKELEAVGLRLNKTPPQIYFKKKKTGGISFNTTAPLTHIDEKLCYQILHEYKIHNAEVLFRENATVDDFIDVIEGNRKYIKCVYVYNKIDVVGIDDVDRLSRQPNSIVISCNLKLNLDRLLARMWDEMGLVRVYSKPQGQQPDFDEPFVLSSDRGGCTVEDFCNHVHRTLVKDMKYALVWGTSTRHNPQNCGLSQHLEDEDVVQIVKKKERDEGGRGRFKSHSNAPARIADREKKAPLKQ	soluble
MGIKGSKPKLSKEDLEFLKKNTNFTEEQIKEWYKGFVQDCPKGHLTKEQFIKVYKDFFPSGSAEGFCEHVFRTFDTDNSGFIDFKEFLLAINVTSSGTPEQKLEWAFRMYDIDGNGTIDEKEMIKIIEAIYEMLGPEVTKSADDSPRKRAKMIFEKMDVNNDKELTLKEFVDGCLADKELFQILTNEVKK	not soluble
MGILSGNPQNEPLHYGEVFDIWSYLLAAQGAIASHQVFMNHTGDEDLKKFLEGLIENDMNSEIEELKALLKINGVALPPAPPERPVASIEDIPPGARINDVEIAAAVSTGLAAGLVTCSQVMGKCLREDVGMLFGQFHMKKAQAGVTLLRLSKKKGWVVPPPLHVRNSDQA	not soluble
MGINVRAVEIQDARAIHRICIQDNVLPYMVFLPSMRVEAMENRIRNLAPNQFEFVAEYDGEVVGFVGLTQSPGRRSHSGDLFIGVDSEYHNKGIGRALLTKMLDLADNWLMLERVELGVLETNPKAKALYEKFGFVEEGVKIGNLKAHGKFINEIMMSRFRPNGLIVHNE	not soluble
MGITLGKKQLNKGRVSLYLNYSYNGKRRKEYLGIILDAPTSAERRAENRNKVLIARQIKAKKELEFLSVEYHLNDIENTFDDILPTDKSNVPDFYILIGQYLDTYHKKDKKMVRACITHLRLFTRKKSLPITLLTKDFCINFLEYLRDHLRGNTPIGYFKKFKMCINKCIEKKLMTSNPTDGIRLMQFDEVTKAILSLKEIQKLAITPCPNNEVKRAFLFSCYCGLRWCDVHQLQYKDIDFSSNRLTILQQKVQSHSKNAILHLNLNHTAIKLLQRHKGINEELVFGLPSYSYTL	not soluble
MGKDGEGDKKRETMAVMSLMKDQQNPIQQFQVKFKEIETGFKSWLSKQKLPVEAAVVTAMGGVQGAFIGGLMGTLSPEMPQAGIDPQAMASLKQTQALVGGPLVQARNFAAITGVNAGIACVMKRIRGKEDLESAVVAAFGSGVAYSLVSAGLQGQPMNAITTAAGFAVFQGVFFKLGERFSKPSVEDPYYTRGRSMLLKLGLEKYEKNFKKGLLADPTLPLLTDSALRDVSIPPGPRLLILDHIQRDPELKGKRGSRG	not soluble
MGKEALLNLYRIEYRPKDTTFTVFKPTHEIQKEKLNKVRWRVFLQTGLPTFRREDEFWCAGKVEKDTLYLTLSNGEIVELKRVGEEEFRGFQNERECQELFRDFLTKTKVKDKFISDFYKKFRDKITVQGKNRKIALIPEVNEKVLKSEEGYFLLHLDLKFRIQPFETLQTLLERNDFNPKRIRVKPIGIDFVGRVQDVFKAKEKGEEFFRLCMERSTHKSSKKAWEELLKNRELREKAFLVVLEKGYTYPATILKPVLTYENLEDEERNEVADIVRMEPGKRLNLIRYILRRYVKALRDYGWYISPEEERAKGKLNFKDTVLDAKGKNTKVITNLRKFLELCRPFVKKDVLSVEIISVSVYKKLEWRKEEFLKELINFLKNKGIKLKIKGKSLILAQTREEAKEKLIPVINKIKDVDLVIVFLEEYPKVDPYKSFLLYDFVKRELLKKMIPSQVILNRTLKNENLKFVLLNVAEQVLAKTGNIPYKLKEIEGKVDAFVGIDISRITRDGKTVNAVAFTKIFNSKGELVRYYLTSYPAFGEKLTEKAIGDVFSLLEKLGFKKGSKIVVHRDGRLYRDEVAAFKKYGELYGYSLELLEIIKRNNPRFFSNEKFIKGYFYKLSEDSVILATYNQVYEGTHQPIKVRKVYGELPVEVLCSQILSLTLMNYSSFQPIKLPATVHYSDKITKLMLRGIEPIKKEGDIMYWL	soluble
MGKGVAFFSGGKDGLYALYLAEEMGIEVPYLLVLKTSIGLSPHWENLDALKTLAKVMEREILTFDMRRGSKALAEFISSLDVDYLIAGDVYLEDHILWVKSLAEEANVKPLEPLWGRNTRKLAEEMLREGFNWAIIAVDKRKLGKEWLGYTFRSIEDLENFLRANPNVDPLGEVGEFHTVVLNSPLFALNFELKVESIEEDERYWWLRFELREVEKWNLNS	soluble
MGKKPISILLMGTDTGALGRSYKGRTDSMMVVTINPKTKKTTITSIPRDLGVTIPGYESKSPSKINAAYAFGQAGTAIKTVQQVFNVPIDFYVLVNMGGMEKVVDEAGGVDITPTLSFTYDGYTFTKGVKTHMNGKKALAYSRMRYDDPQNDYGRQTRQRAVLTAIISKSSSVSSLLNKDFIDSISNETKTDFTFNDLVDLAKNYRSSTGSIEETHAQGDGQMVNGQSMEIVSNTELQRVTNFIRNGLSLEHEKTGTAALSASSANTSDSSVEAANINAGNLEHHHHHH	soluble
MGKNLSLRQDDAQHALSANTSSAYNSVYDFLRYHDRGDGLTVNGKTSYSIDQAAAQITRENVSWNGTNVFGKSANLTFKFLQSVSSIPSGDTGFVKFNAEQIEQAKLSLQSWSDVANLTFTEVTGNKSANITFGNYTRDASGNLDYGTQAYAYYPGNYQGAGSSWYNYNQSNIRNPGSEEYGRQTFTHEIGHALGLAHPGEYNAGEGDPSYNDAVYAEDSYQFSIMSFWGENETGADYNGHYGGAPMIDDIAAIQRLYGANMTTRTGDSVYGFNSNTDRDFYTATDSSKALIFSVWDAGGTDTFDFSGYSNNQRINLNEGSFSDVGGLKGNVSIAHGVTIENAIGGSGNDILVGNSADNILQGGAGNDVLYGGAGADTLYGGAGRDTFVYGSGQDSTVAAYDWIADFQKGIDKIDLSAFRNEGQLSFVQDQFTGKGQEVMLQWDAANSITNLWLHEAGHSSVDFLVRIVGQAAQSDIIV	soluble
MGKRIAFWFEFASTYSYLSAMRIERAAADLGVTIAWEPFLLGPIFAAQGWTSSPFNLFPAKGRYMWRDMERLCARQGLPLTRPDPFPQNGLPAARLAMVAREMGHIAPFVRAVYAAQFGRGLVISDPQVLAECWAEAGLPPEAMEQAKSPEIKAALFAQGERAAALDLFGAPSFVVGEEVFWGDDRLDQALALAAQS	soluble
MGKSLTEIAEELKGNDKKVQLIYAFNGTGKTRLSREFKNLIAPTSSEEPDGEPTRRKFLYYNAFTEDLFFWDNDLLANEAPRLKIQKNSFTDWLLRDNGLDGAVIKNFQYYTDDKLTPDFNDDFSEIAFYFARGNDEQIENIKISKGEESNFIWSIFYVLIRQVIAELNIPEDSEEGRSTDQFDDLEYIFIDDPVSSLDENHLIQQAVDLADLIKLSKPRLKFIITTHNVLFYNVLYNELKKLEKEKKSYLLLKNEDGSFDILEKQGDSNKSFSYHLHLKGVIEKAIENQQVERFHFMLLRNLYEKTANFLGYKQRSDILPEDSRRNYFQRIINFTSHSTLSNEAFAEPTPQEQETVKLLLQHLLDNYNFFQDDEQRDKP	not soluble
MGLELRAIQSPIFSEPFDFTFHAQAFTLLVGSSGSGKSSLFQMIAQVSSLPYSGQVLIDGSEVSQLSIVERVQTVGILLQNPNHQFTMESLFEELVFTMENIGYHLQEIDSKIAEVVQQCRCKDILHRLIHHLSGGEKQKAALAVLFAMNPRVYLLDEPFASIDRKSRIEILEILKELVYDGKTVILCDHDLSDYKAYIDHMVELRDGKLREVFQIPSYEMTQVASKEVASSPELFHMNRVTGELGNRPLFSIADFTFYQGISCILGDNGVGKSTLFRSILQFQKYKGSITWKGSVLKKKKSLYRDLTGVVQEAEKQFIRVSLREELQLDGPDSERNQRIFQALRYFDLEQAVDKSPYQLSGGQQKILQLLTILTSKASVILLDEPFAGLDDRACHYFCKWIVEERNQGRSFLLISHRLDPLISVVDYWIEMTSQGLRHVKEVTITKPLTSQSSNTQGEVR	not soluble
MGLKDQAVTWRRYFHQFPELSDKEFKTTQKIKDILTEHHIRILDLPLATGLVAEVGQGLSCIAVRADIDALPIQELVEQDFKSENEGVMHACGHDIHMASILATAVKLKEIEGTLTGRVKFIFQSAEELGHGAFKIIETHALKDVQAVLGFHNDPSRSVGTFAIKTGAITSAVDRFEFHIKGVGGHAAKPEQCNDPVIVLAQLINSIQSIVSRNLSAFDEAVVTIGQISCGNTWNVIADHAYVQGTVRSFDPVVRKLVETRLQDIADGLAQAYNMKINLNYTHLPGAVMNDEALTHKAIAVAQHVGYKVEMMEQPLTIGEDFSGYSQHFPSVFALIGSHSEYDLHHPQYKPDERILEKVPEYFVEFVKRLLHE	not soluble
MGLLIDGVWHDQWYDTKSTGGSFKRQDAKFRNWITHDGSAGPSGTGGFTPDSGRYHLYISHACPWAHRTMIFRTLKGLEDHITISAVHPDMLGEGWTFEPDDNGATGDTLYNSAFARDIYTRADPRFTGRVTVPILWDKQRETIVSNESSEIIRMFNAAFNGLTGNSDDYWPEPLRDAIAPVNERIYDTFNNGVYKAGFATTQQAYDAAIVPLFDTLDWLEERLSHNRYLMGDQLTEADWRLFTTLVRFDPVYHLHFKCNRKRIVDYPNLWGYTRELYQTPGVADTVNFDHIVRHYHYSHETINPNRIIPINPVLDFHRPHGRGLEHHHHHH	soluble
MGLSNRAIIIDGKNHLLGRLASIVAKKLLQGDKVVVLRAEEIVISGNFHRSKLKYMSFLRKRCNINPARGAFHYRAPGKIFWRTVRGMLPHKTNRGNEALKNLRAYEGVPAKYQKTKSLHAPSASRFRLQPRRKFCVVGRLSHEVGWQFQDVVAKLEAKRKVKGAAYFEQKKKMDKLAVQAKKNAAPKIAQYQKIIEALGYN	not soluble
MGNASMTKTDIATRVHNHTWKLDPIVRSLIDTDFYKLLMLQMIWKLYPEVDATFSLINRTKTVRLAEEIDEMELREQLDHARTLRLSKKENIWLAGNTFYGRSQIFEPEFLSWLSSYQLPEYELFKRDGQYELNFHGRWMDTTLWEIPALSIINELRSRSAMRSLGYFTLDVLYARAKAKMWEKVERLRELPGLRISDFGTRRRHSFLWQRWCVEALKEGIGPAFTGTSNVLLAMDSDLEAVGTNAHELPMVVAALAQTNEELAAAPYQVLKDWNRLYGGNLLIVLPDAFGTAAFLRNAPEWVADWTGFRPDSAPPIEGGEKIIEWWRKMGRDPRTKMLIFSDGLDVDAIVDTYRHFEGRVRMSFGWGTNLTNDFAGCAPKTIASLKPISIVCKVSDANGRPAVKLSDNPQKATGDPAEVERYLKFFGEEDHKEQKVLVLEHHHHHH	not soluble
MGNKQTIFTEEQLDNYQDCTFFNKKDILKLHSRFYELAPNLVPMDYRKSPIVHVPMSLIIQMPELRENPFKERIVAAFSEDGEGNLTFNDFVDMFSVLCESAPRELKANYAFKIYDFNTDNFICKEDLELTLARLTKSELDEEEVVLVCDKVIEEADLDGDGKLGFADFEDMIAKAPDFLSTFHIRI	not soluble
MGNNSSAQSSTPSLPIDSTFNLPSPLPSWPSGEGFAKGRIDLGGLEVSQVDTFNKVWTVYEGGQDNLGATFFEPSSVPEGFSILGFYAQPNNRKLFGWTLVGKDLSGDSLRPPVDYLLLWSGKSTKVENNKVETGYFWQPVPPDGYNAVGLIVTTSDEKPPLDKIRCVRSDLTDQSEPDALIWETNGFSVSSSKPVNRGTQASGVSVGTFFSNSPNPALPCLKNNNFDFSCMPSKPQIDALFQTYAPWIYFHKDEKYLPSSVNWFFSNGALLYKKGDESNPVPVEPNGLNLPQGEFNDGLYWLDLPVASDARKRVQCGDLQSMEVYLHIKPVFGGTFTDIAVWMFYPFNGPSRAKLKAASIPLGRIGEHIGDWEHFTLRISNFSGKLHRMYLSQHSGGSWADASEIEFQGGGNKPVAYASLNGHAMYSKPGLVLQGKDNVGIRNDTGKSEKVIDTAVRFRVVAAEYMRGELEEPAWLNYMRHWGPKIDYGHENEIRGVEKIMVGESLKTTFRSAIKGLPNEVFGEEGPTGPKLKRNWLGDEV	not soluble

— the DeepSol protein solubility set
